# T1: Methyl Red (MR)-AAPV-NBD-UBI29-41
# T1 chain: AAPVKTGRAKRRMQYNRR
# Columns and labels:
# [1] = biological target: T1, Methyl Red (MR)-AAPV-NBD-UBI29-41
# [2] = biological target: TAMRA-AAPV-NBD-PMX
protein,measurement,setting,value
human neutrophil elastase (HNE) (protein) IVGGRRARPHAWPFMVSLQLRGGHFCGATLIAPNFVMSAAHCVANVNVRAVRVVLGAHNLSRREPTRQVFAVQRIFENGYDPVNLLNDIVILQLNGSATINANVQVAQLPAQGRRLGNGVQCLAMGWGLLGRNRGIASVLQELNVTVVTSLCRRSNVCTLVRGRQAGVCFGDSGSPLVCNGLIHGIASFVRGGCASGLYPDAFAPVAQFVNWIDSIIQ,"bacterial labelling (NBD fluorescence, confocal microscopy) after cleavage of the probe in a co-culture of bacteria and neutrophils",[1],These images confirm the ability of the probe to be cleaved by neutrophil derived HNE and to label bacteria
same,bacterial labelling by NBD fluorescence (confocal microscopy) after cleavage of the probe,[2],"Once the probe has been cleaved by elastase, the bacteria are labelled by the probe element due to the fluorescence of NBD"
same,"fluorescence of the cleaved TAMRA compound (spectrophotometer, ex 525 nm, Em 580 nm)",[2],the fluorescence of the cleaved TAMRA compound increases in an elastase dependent manner and are inhibited with an elastase inhibitor such as sivelestat
